Assay results from patent US20250115671A1 (BEIGENE, published 2025).

Assays:
huCCR8 D26A [1] = molecular target: T1, huCCR8 D26A (human, UniProt P51685 1-355); assay: flow cytometry, transfected Expi293 cells, antibody at 50, 10 and 1 nM
T1 construct: Point mutant on transfected Expi293 cells
Method: (§1) To more precisely determine the specific amino acid residues that are crucial for antibody binding to human CCR8, point mutations were introduced to ECL2, ECL3 and N-terminal regions of human CCR8, as shown in the first column of Table 19. To evaluate the impact of each mutant, humanized anti-CCR8 antibody hu305-5W-3a was used to react with transfected Expi293 cells as described above with the concentration of 50 nM, 10 nM and 1 nM (results summarized in Table 19). The critical amino acids for hu305-5W-3a binding are marked with an “X” indicating a loss of >50% compared with wild type huCCR8, which is considered significant.

huCCR8 Y172A [2] = molecular target: T2, huCCR8 Y172A (human, UniProt P51685 1-355); assay: as above
T2 construct: Point mutant on transfected Expi293 cells
Method: as §1

huCCR8 E177A [3] = molecular target: T3, huCCR8 E177A (human, UniProt P51685 1-355); assay: as above
T3 construct: Point mutant on transfected Expi293 cells
Method: as §1

huCCR8 D178A [4] = molecular target: T4, huCCR8 D178A (human, UniProt P51685 1-355); assay: as above
T4 construct: Point mutant on transfected Expi293 cells
Method: as §1

huCCR8 M266A [5] = molecular target: T5, huCCR8 M266A (human, UniProt P51685 1-355); assay: as above
T5 construct: Point mutant on transfected Expi293 cells
Method: as §1

huCCR8 L269A [6] = molecular target: T6, huCCR8 L269A (human, UniProt P51685 1-355); assay: as above
T6 construct: Point mutant on transfected Expi293 cells
Method: as §1

human CCR8 [7] = molecular target: T7, human CCR8 (human, UniProt P51685 1-355); assay: flow cytometry, transfected Expi293 cells, serial dilution from 200 nM
T7 construct: Full length; also called huCCR8; C-C motif chemokine receptor 8
Method: (§2) In comparison, the 10A11 reference antibody recognizes D14, Y17, D19 on the N-terminal domain of huCCR8 as the mutation on these sites totally abolished the binding, indicating no overlap in epitope between the reference antibody 10A11 and hu305-5W-3a. To further confirm the critical roles of these sites for binding, the transfected Expi293 cells were stained with a serial dilution of hu305-5W-3a from 200 nM followed by detection with Alexa Fluor 647 Rabbit Anti-Human IgG (Cat.: 309-605-008 Jackson ImmunoResearch) to obtain a full binding curve. […] D178 and M266 are considered as 2nd tier epitopes having media impact on Hu305-5W-3a binding. Substitution them with Ala will lead to ˜3 folds decrease of EC50.

huCCR8 D26A [8] = molecular target: T1, huCCR8 D26A; assay: as above
Method: as §2

huCCR8 Y172A [9] = molecular target: T2, huCCR8 Y172A; assay: as above
Method: as §2

huCCR8 E177A [10] = molecular target: T3, huCCR8 E177A; assay: as above
Method: as §2

huCCR8 D178A [11] = molecular target: T4, huCCR8 D178A; assay: as above
Method: as §2

huCCR8 M266A [12] = molecular target: T5, huCCR8 M266A; assay: as above
Method: as §2

huCCR8 L269A [13] = molecular target: T6, huCCR8 L269A; assay: as above
Method: as §2

human CCR8 [14] = molecular target: T7, human CCR8; assay: cell-based or functional assay
human CCR8 [15] = molecular target: T7, human CCR8; assay: flow cytometry, 293T-huCCR8 cells
Source text: (§3) After washing twice with FACS buffer, cells were resuspended with FACS buffer and acquired on a Beckton Dickinson LSR Fortessa™. Titration curves were generated using sigmoid dose-response of nonlinear fit from GraphPad, and the EC50s of representative antibodies are shown in Table 2.

Cynomolgus Monkey CCR8 = molecular target: T8, Cynomolgus Monkey CCR8 (cynomolgus monkey, UniProt O97665 1-356 (rhesus entry)); assay: flow cytometry, 293T-cynoCCR8 cells
T8 construct: also called cyno CCR8; cynoCCR8
Source text: as §3

human CCR8 [16] = molecular target: T7, human CCR8; assay: flow cytometry, Jurkat-human CCR8 cells
Method: To evaluate the binding activity of anti-CCR8 antibodies to bind CCR8 expressed on living cells, Jurkat cells were engineered to over-express human CCR8. Jurkat-human CCR8 cells were seeded in 96-well plate and incubated with a series of dilutions of anti-CCR8 antibodies. Goat anti-human IgG was used as secondary antibody to detect antibody binding to the cell surface. EC50 values for dose-dependent binding to human CCR8 were determined by fitting the dose-response data to the four-parameter logistic model with GraphPad Prism. As shown in Table 4 and FIG. 3 the CCR8 antibodies had high binding affinity to human CCR8.

mouse CCR8 = molecular target: T9, mouse CCR8 (mouse, UniProt P56484 1-353); assay: flow cytometry on transfected Expi293 cells, serial dilution
T9 construct: Full length, transiently expressed on Expi293 cells; also called muCCR8; CCR8-mo8
T9 sequence: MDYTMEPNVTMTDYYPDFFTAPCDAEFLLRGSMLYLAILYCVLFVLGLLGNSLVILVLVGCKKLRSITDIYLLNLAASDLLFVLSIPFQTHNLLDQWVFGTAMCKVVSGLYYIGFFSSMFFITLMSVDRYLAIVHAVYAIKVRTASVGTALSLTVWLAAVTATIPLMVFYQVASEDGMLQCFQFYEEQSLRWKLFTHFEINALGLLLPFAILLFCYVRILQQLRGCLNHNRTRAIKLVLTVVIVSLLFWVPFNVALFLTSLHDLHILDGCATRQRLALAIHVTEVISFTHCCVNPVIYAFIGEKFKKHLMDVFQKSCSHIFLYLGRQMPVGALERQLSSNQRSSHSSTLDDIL
Method: The plasmids containing these chimeric CCR8 constructs, and human CCR8 (CCR8-hu8) and mouse CCR8 (CCR8-mo8) as control, were used to transfect Expi293™ cells for transient protein expression, after which cells were incubated with a serial dilution of the purified Ch305 as well as a reference antibody 10A11 from Shionogi (US 2022/0064312 A1). The binding of each construct was evaluated detection with Alexa Fluor 647 Rabbit Anti-Human IgG (Cat.: 309-605-008 Jackson ImmunoResearch). […] In addition, replacing the human CCR8 N-terminal region with mouse CCR8 N-terminal (CCR8_Ch1) also weakly impairs the affinity, which means human CCR8 N-terminal contributes to the binding activity of human CCR8 with Ch305. In the meanwhile, substituting mouse CCR8 N-terminal with human CCR8 N-terminal (CCR8_Ch5) rescues the binding activity of murine CCR8 with Ch305 to some extent much weaker than the binding activity of wild type human CCR8 to Ch305, which means human CCR8 N-terminal contributes but weakly or partly to the binding activity of human CCR8 with Ch305. […] In comparison, the reference antibody 10A11 binds to the N-terminal region of CCR8 only and it has no binding to ECL1, ECL2 and ECL3, that is, the epitope of 10A11 on human CCR8 locates only on N-terminal of human CCR8 (FIG. 9B).

[17] = molecular target: T10, human CCR8 N-terminal domain-mouse Fc tag fusion protein (human (CCR8 part), mouse IgG2a Fc); assay: ELISA, plate coated with human CCR8 N-terminal domain-Fc fusion
T10 construct: also called huCCR8-N-mIgG2a; human CCR8 N-terminal protein
T10 chain: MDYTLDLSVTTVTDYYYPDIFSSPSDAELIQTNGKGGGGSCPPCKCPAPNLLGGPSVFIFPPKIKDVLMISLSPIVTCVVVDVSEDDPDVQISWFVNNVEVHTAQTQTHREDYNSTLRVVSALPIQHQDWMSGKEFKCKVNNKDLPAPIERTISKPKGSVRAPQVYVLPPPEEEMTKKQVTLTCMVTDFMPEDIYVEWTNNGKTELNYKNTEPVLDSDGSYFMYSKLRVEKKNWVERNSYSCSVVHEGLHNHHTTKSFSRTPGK
Method: To determine whether anti-CCR8 antibodies bind to the N-terminal domain of human CCR8, ELISA plates were coated with human CCR8 N-terminal domain-mouse Fc tag fusion protein (SEQ ID NO: 28 and 29) overnight at 4° C. After washing and blocking, serially diluted anti-CCR8 antibodies were added to plates and incubated for 1 hour at room temperature. After washing, diluted HRP goat anti-human IgG Fc or HRP goat anti-mouse kappa chain (for 433H) secondary antibodies were added to plates and incubated for 45 minutes at room temperature. After washing, TMB substrate was added to plates for developing and then stopped by adding TMB substrate stop solution. The absorbance was read at 450 nm using a plate reader. […] It is a non CCR8 N-terminal loop binder.

T8 sequence (O97665 other isoform, or with tags, fused parts or gaps): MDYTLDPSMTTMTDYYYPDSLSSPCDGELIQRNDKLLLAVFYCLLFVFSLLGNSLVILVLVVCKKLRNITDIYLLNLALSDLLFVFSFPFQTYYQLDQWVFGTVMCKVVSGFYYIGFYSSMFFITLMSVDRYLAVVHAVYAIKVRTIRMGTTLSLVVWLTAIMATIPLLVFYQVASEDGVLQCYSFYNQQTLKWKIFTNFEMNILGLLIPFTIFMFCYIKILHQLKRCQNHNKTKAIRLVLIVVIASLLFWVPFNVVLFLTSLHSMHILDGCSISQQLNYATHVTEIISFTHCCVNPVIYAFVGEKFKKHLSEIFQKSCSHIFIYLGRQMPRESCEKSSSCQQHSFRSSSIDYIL

B1: hu305-5W-3a (antibody, V domains shown)
VH: QVQLKQSGPGLVKPSETLSLTCTVSGFSLAVYGVHWVRQPPGKGLEWLGVIWRGGTTDYNPSLKSRLTFSKDSSKSQVSLKLSSVTAADTAVYYCAKNRVTTVVAPNFYAMDYWGQGTLVTVSS
VL: DIVMTQSPDSLAVSLGERATINCKSSQSLLYSGNQKNYLAWYQQKPGQPPKLLIYWASTRKSGVPDRFSGSGSGTDFTLTISSLKAEDVAVYYCQQYYTYPLTFGQGTRLEIK
huCCR8 D26A [1]
  loss of binding compared with wild type huCCR8: > 50%
huCCR8 Y172A [2]
  loss of binding compared with wild type huCCR8: > 50%
huCCR8 E177A [3]
  loss of binding compared with wild type huCCR8: > 50%
huCCR8 D178A [4]
  loss of binding compared with wild type huCCR8: > 50%
huCCR8 M266A [5]
  loss of binding compared with wild type huCCR8: > 50%
huCCR8 L269A [6]
  loss of binding compared with wild type huCCR8: > 50%
Human CCR8 [7]
  EC50: 6.3 nM
huCCR8 D26A [8]
  EC50: 16.8 nM
  fold change of EC50 against wild type huCCR8: > 2 fold
huCCR8 Y172A [9]
  EC50: 26.3 nM
  fold change of EC50 against wild type huCCR8: > 4 fold
huCCR8 E177A [10]
  EC50: 25.4 nM
  fold change of EC50 against wild type huCCR8: > 4 fold
huCCR8 D178A [11]
  EC50: 18.3 nM
  fold change of EC50 against wild type huCCR8: ~3 fold
huCCR8 M266A [12]
  EC50: 19.4 nM
  fold change of EC50 against wild type huCCR8: ~3 fold
huCCR8 L269A [13]
  EC50: 27.4 nM
  fold change of EC50 against wild type huCCR8: > 4 fold

B2: Ch305 (antibody, V domains shown)
VH: QVQMKQSGPSLVQPSQSLSITCTVSGFSLTSYGVHWVRQSPGKGLEWLGVIWRGGTTDYNAAFMSRLSFTKDSSKSQVFFKLNSLQADDTAIYYCAKNRVTTVVAPNFYAMDYWGQGTSVTVSS
VL: DIVMTQSPSSLAVSVGEKVTMSCKSSQSLLYSGNQKNYLAWYQQKPGQSPKLLIYWASTRKSGVPDRLTGSGSGTDFTLTISSVKAEDLAAYYCQQYYTYPLTFGAGTRLEIK
Human CCR8 [14]
  IC50 (nM), ligand blocking activity (PathHunter beta-arrestin): 5.9 nM
Human CCR8 [15]
  EC50: 3.67 nM
Cynomolgus Monkey CCR8
  EC50: 4.1 nM
Human CCR8 [16]
  EC50: 9.37 nM
Mouse CCR8
  binding result: no binding
[17]
  EC50: 5.01 nM
